Data from patent WO2012132067A1 (dated 2012).

How the values were obtained:
human FcγRIIa(H) = molecular target: T1, human FcγRIIa(H) (human, UniProt P12318 36-217); assay: Biacore T100, Protein A capture, 25 C; against IgG1 (IL6R-G1d)
T1 construct: also called hFcgRIIa(H); FcγRIIa H type
T1 sequence: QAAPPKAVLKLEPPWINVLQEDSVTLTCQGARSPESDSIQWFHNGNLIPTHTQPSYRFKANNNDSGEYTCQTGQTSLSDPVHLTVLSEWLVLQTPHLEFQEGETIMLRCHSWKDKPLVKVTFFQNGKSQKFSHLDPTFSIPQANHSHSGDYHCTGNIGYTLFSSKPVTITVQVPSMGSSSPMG

human FcγRIIb [1] = molecular target: T2, human FcγRIIb (human, UniProt P31994 43-217, limits assumed); assay: as above
T2 construct: also called hFcgRIIb
T2 sequence: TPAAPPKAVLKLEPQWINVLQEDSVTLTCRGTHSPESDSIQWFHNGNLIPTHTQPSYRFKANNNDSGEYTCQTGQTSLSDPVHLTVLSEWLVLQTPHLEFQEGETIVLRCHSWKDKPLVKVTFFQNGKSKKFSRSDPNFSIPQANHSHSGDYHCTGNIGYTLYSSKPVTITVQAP

human FcγRIIa(R) = molecular target: T3, human FcγRIIa(R) (human, UniProt P12318 36-217); assay: Biacore T100, Protein A capture, 25 C; against IgG1 (IL6R-G1d); the Japanese text says improved 522-fold
T3 construct: also called hFcgRIIa(R); FcγRIIa R type
T3 chain: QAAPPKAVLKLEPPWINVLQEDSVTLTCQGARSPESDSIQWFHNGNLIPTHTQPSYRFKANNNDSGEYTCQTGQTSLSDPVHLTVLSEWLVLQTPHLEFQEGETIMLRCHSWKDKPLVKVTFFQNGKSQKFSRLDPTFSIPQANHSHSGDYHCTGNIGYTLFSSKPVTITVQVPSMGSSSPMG

human FcγRIIb [2] = molecular target: T2, human FcγRIIb; assay: Biacore T100, Protein L capture, FcγR injected, pH 7.4, 25 C (Table 19 not given)
human FcRn [3] = molecular target: T4, human FcRn (human, UniProt P55899 24-290; P61769 21-119, limits assumed); assay: Biacore, human FcRn, pH 7.0 (Table 20 not given)
T4 construct: also called hFcRn

human FcRn [4] = molecular target: T4, human FcRn; assay: Biacore, Protein L capture, human FcRn injected, pH 7.0 (Table 6 not given)
[5] = molecular target: T5, soluble human IL-6 receptor (human, UniProt P08887 20-357); assay: summary of the Biacore result of Reference Example 7, told in Reference Example 12
T5 construct: The stated range 1-357 is that of the expressed construct; also called hsIL-6R
T5 sequence: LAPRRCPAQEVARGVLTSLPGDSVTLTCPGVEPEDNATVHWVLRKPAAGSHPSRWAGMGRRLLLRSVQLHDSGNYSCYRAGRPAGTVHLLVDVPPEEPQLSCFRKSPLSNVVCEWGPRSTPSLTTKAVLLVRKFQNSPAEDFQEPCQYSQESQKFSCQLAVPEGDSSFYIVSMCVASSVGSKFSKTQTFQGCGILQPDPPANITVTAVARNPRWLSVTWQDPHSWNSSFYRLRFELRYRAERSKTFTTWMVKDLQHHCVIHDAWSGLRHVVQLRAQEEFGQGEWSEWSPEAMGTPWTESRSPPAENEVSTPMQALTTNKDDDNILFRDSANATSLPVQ

mouse FcγRIIb = molecular target: T6, mouse FcγRIIb (mouse, UniProt P08101 30-210, limits assumed); assay: SPR (Biacore), antibody held on immobilised mouse FcRn, FcγR injected, pH 7.4, 25 C
T6 sequence (looked up): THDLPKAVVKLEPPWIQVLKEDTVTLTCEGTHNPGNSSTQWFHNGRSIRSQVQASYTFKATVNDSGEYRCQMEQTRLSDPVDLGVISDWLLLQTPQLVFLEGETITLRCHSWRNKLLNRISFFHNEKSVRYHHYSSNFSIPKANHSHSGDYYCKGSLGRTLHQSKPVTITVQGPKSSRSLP

mouse FcγRIII = molecular target: T7, mouse FcγRIII (mouse, UniProt P08508 31-215); assay: as above
T7 sequence (looked up): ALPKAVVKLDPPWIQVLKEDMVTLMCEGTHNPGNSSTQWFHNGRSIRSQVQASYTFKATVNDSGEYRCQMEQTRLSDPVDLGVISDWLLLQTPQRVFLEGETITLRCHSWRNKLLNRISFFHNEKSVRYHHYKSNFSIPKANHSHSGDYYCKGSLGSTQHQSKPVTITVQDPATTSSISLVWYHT

mouse FcγRI = molecular target: T8, mouse FcγRI (mouse, UniProt P26151 25-297); assay: as above
T8 sequence (looked up): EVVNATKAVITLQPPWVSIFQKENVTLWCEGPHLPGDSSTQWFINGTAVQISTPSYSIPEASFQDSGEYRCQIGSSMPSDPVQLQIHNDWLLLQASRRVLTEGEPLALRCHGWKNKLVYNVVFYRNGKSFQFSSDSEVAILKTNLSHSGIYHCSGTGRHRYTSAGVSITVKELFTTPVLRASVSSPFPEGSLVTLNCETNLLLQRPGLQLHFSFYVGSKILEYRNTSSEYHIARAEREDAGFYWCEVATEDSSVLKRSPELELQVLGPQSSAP

T4 sequence (P55899 24-290 limits assumed, chain 1 of 2): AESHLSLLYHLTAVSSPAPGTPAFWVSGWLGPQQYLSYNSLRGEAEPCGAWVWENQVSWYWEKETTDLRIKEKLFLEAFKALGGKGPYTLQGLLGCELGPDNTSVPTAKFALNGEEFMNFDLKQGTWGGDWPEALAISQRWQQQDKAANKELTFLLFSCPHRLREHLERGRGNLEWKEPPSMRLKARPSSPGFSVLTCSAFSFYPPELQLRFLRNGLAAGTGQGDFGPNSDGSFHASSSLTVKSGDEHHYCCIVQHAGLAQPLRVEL
T4 sequence (P61769 21-119 limits assumed, chain 2 of 2): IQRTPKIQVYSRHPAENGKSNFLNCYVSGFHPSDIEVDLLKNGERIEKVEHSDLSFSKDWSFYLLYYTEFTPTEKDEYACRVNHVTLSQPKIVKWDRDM

B1: IgG1-v3 (IL6R-G1d_v3/IL6R-L) (antibody)
heavy: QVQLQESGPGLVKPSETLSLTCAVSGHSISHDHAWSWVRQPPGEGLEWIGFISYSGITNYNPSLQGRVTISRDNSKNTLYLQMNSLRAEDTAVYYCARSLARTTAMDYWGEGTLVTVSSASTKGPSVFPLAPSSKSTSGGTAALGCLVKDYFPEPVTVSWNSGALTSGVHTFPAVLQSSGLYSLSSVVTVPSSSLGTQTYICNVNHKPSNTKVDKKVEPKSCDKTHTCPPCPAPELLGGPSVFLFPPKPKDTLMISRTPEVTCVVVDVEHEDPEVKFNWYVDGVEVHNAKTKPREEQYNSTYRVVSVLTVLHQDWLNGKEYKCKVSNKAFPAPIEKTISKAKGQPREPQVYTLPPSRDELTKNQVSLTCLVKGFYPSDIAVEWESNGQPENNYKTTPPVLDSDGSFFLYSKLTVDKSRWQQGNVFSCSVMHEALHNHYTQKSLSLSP
light: DIQMTQSPSSLSASVGDRVTITCRASQDISSYLNWYQQKPGKAPKLLIYYTSRLHSGVPSRFSGSGSGTDFTFTISSLQPEDIATYYCQQGNTLPYTFGQGTKVEIK
notes: IL6R-G1d with S267E/L328F (EU), known mutation used for comparison; copies: 2 + 2
relative KD (KD of IgG1 divided by KD of the variant) (human FcγRIIa(H)): 0.51 fold
relative KD (KD of IgG1 divided by KD of the variant) (human FcγRIIb [1]): 408 fold
relative KD (KD of IgG1 divided by KD of the variant) (human FcγRIIa(R)): 522 fold

B2: VH3/L(WT)-IgG1-F652 (antibody)
heavy: QVQLQESGPGLVKPSETLSLTCAVSGHSISHDHAWSWVRQPPGEGLEWIGFISYSGITNYNPSLQGRVTISRDNSKNTLYLQMNSLRAEDTAVYYCARSLARTTAMDYWGEGTLVTVSSASTKGPSVFPLAPSSKSTSGGTAALGCLVKDYFPEPVTVSWNSGALTSGVHTFPAVLQSSGLYSLSSVVTVPSSSLGTQTYICNVNHKPSNTKVDKKVEPKSCDKTHTCPPCPAPELLGGDSVFLFPPKPKDTLYISRTPEVTCVVVDVSHEDPEVKFNWYVDGVEVHNAKTKPREEQYNSTYRVVSVLTVLHQDWLNGKEYKCKVSNKALPAPIEKTISKAKGQPREPQVYTLPPSRDELTKNQVSLTCLVKGFYPSDIAVEWESNGQPENNYKTTPPVLDSDGSFFLYSKLTVDKSRWQQGNVFSCSVMHEALHYHYTQKSLSLSP
light: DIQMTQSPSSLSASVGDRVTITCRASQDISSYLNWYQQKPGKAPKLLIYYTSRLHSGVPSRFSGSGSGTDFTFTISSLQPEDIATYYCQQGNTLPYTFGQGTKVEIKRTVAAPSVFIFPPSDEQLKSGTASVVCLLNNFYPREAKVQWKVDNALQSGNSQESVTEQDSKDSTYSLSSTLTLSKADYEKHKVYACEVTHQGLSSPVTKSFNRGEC
notes: VH3-IgG1-F11 with P238D (EU); copies: 2 + 2
binding result (human FcγRIIb [2]): binds
binding result (human FcRn [3]): binds

B3: VH3/L(WT)-IgG1-F21 (antibody)
heavy: QVQLQESGPGLVKPSETLSLTCAVSGHSISHDHAWSWVRQPPGEGLEWIGFISYSGITNYNPSLQGRVTISRDNSKNTLYLQMNSLRAEDTAVYYCARSLARTTAMDYWGEGTLVTVSSASTKGPSVFPLAPSSKSTSGGTAALGCLVKDYFPEPVTVSWNSGALTSGVHTFPAVLQSSGLYSLSSVVTVPSSSLGTQTYICNVNHKPSNTKVDKKVEPKSCDKTHTCPPCPAPELLGGPSVFLFPPKPKDTLYISRTPEVTCVVVDVSHEDPEVKFNWYVDGVEVHNAKTKPREEQYNSTYRVVSVLTPLHQDWLNGKEYKCKVSNKALPAPIEKTISKAKGQPREPQVYTLPPSRDELTKNQVSLTCLVKGFYPSDIAVEWESNGQPENNYKTTPPVLDSDGSFFLYSKLTVDKSRWQQGNVFSCSVMHEALHYHYTQKSLSLSP
light: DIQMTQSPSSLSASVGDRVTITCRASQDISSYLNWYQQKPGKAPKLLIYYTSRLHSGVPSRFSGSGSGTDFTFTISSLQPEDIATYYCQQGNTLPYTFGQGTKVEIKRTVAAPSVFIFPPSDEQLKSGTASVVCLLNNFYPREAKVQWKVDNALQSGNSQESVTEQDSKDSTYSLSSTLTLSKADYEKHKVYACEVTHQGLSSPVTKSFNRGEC
notes: Measured with light chain L(WT)-CK; result sentences name it Fv4-IgG1-F21; also called Fv4-IgG1-F21; copies: 2 + 2
binding result (human FcRn [4]): binds

B4: VH3/L(WT)-IgG1-F157 (antibody)
heavy: QVQLQESGPGLVKPSETLSLTCAVSGHSISHDHAWSWVRQPPGEGLEWIGFISYSGITNYNPSLQGRVTISRDNSKNTLYLQMNSLRAEDTAVYYCARSLARTTAMDYWGEGTLVTVSSASTKGPSVFPLAPSSKSTSGGTAALGCLVKDYFPEPVTVSWNSGALTSGVHTFPAVLQSSGLYSLSSVVTVPSSSLGTQTYICNVNHKPSNTKVDKKVEPKSCDKTHTCPPCPAPELLGGPSVFLFPPKPKDTLMISRTAEVTCVVVDVSHEDPEVKFNWYVDGVEVHNAKTKPREEQYNSTYRVVSVLTPLHQDWLNGKEYKCKVSNKALPAPIEKTISKAKGQPREPQVYTLPPSRDELTKNQVSLTCLVKGFYPSDIAVEWESNGQPENNYKTTPPVLDSDGSFFLYSKLTVDKSRWQQGNVFSCSVLHEALHYHYTQKSLSLSP
light: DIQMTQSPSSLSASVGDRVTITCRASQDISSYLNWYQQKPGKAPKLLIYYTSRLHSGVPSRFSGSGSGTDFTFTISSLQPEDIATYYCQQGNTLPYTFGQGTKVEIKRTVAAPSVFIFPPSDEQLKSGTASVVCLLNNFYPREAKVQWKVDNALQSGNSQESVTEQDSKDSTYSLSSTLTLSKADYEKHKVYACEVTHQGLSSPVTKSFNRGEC
notes: also called Fv4-IgG1-F157 (name in result sentence); copies: 2 + 2
binding result (human FcRn [4]): binds

B5: 6RL#9-IgG1 (antibody, V domains shown, not shown: a dimerising Fc or GST)
VH: QVQLVQSGAEVKKPGASVKVSCKASGYTFTSYYMHWVRQAPGQGLEWMGIINPSGGSTSYAQKFQGRVTMTRDTSTSTVYMELSSLRSEDTAVYYCARDDPGGGEYYFDYWGQGTLVTVSS
VL: QSVLTQPPSVSGAPGQRVTISCTGSRSNMGAGYDVHWYQLLPGAAPKLLISHNTHRPSGVPDRFSGSKSGASASLAITGLQAEDEADYYCQSHDSSLSAVVFGGGTKLTVLS
notes: Ca-dependent anti-human IL-6 receptor antibody from a naive human phage library; also called 6RL#9 antibody
Ca-dependence of binding (fold) [5]: ≥ 100 fold

B6: FH4-IgG1 (antibody, V domains shown)
VH: QVQLVQSGAEVKKPGSSVKVSCKASGGTFSSYAISWVRQAPGQGLEWMGGIIPIFGTANYAQKFQGRVTITADESTSTAYMELSSLRSEDTAVYYCARERDYYDSSGYYDAFDIWGQGTMVTVSS
VL: ETTVTQSPSFLSASVGDRVTITCITTTDIDDDMNWFQQEPGKAPKLLISEGNILRPGVPSRFSSSGYGTDFTLTISKLQPEDFATYYCLQSDNLPFTFGQGTKLEIKR
notes: Ca-dependent anti-human IL-6 receptor antibody from a naive human phage library
Ca-dependence of binding (fold) [5]: ≥ 100 fold

B7: mPM1-mIgG1-mF3 (antibody)
heavy: DVQLQESGPVLVKPSQSLSLTCTVTGYSITSDHAWSWIRQFPGNKLEWMGYISYSGITTYNPSLKSRISITRDTSKNQFFLQLNSVTTGDTSTYYCARSLARTTAMDYWGQGTSVTVSSAKTTPPSVYPLAPGSAAQTNSMVTLGCLVKGYFPEPVTVTWNSGSLSSGVHTFPAVLQSDLYTLSSSVTVPSSTWPSETVTCNVAHPASSTKVDKKIVPRDCGCKPCICTVPEVSSVFIFPPKPKDVLYITLEPKVTCVVVDISKDDPEVQFSWFVDDVEVHTAQTQPREEQFNSTFRSVSELPIMHQDWLNGKEFKCRVNSAAFPAPIEKTISKTKGRPKAPQVYTIPPPKEQMAKDKVSLTCMITDFFPEDITVEWQWNGQPAENYKNTQPIMDTDGSYFVYSKLNVQKSNWEAGNTFTCSVLHEGLKFHHTEKSLSHSPGK
light: DIQMTQTTSSLSASLGDRVTISCRASQDISSYLNWYQQKPDGTIKLLIYYTSRLHSGVPSRFSGSGSGTDYSLTINNLEQEDIATYFCQQGNTLPYTFGGGTKLEIKRADAAPTVSIFPPSSEQLTSGGASVVCFLNNFYPKDINVKWKIDGSERQNGVLNSWTDQDSKDSTYSMSSTLTLTKDEYERHNSYTCEATHKTSTSPIVKSFNRNEC
notes: Mouse IgG1 anti-human IL-6R antibody of mPM1H-mIgG1-mF3 and mPM1L-mk1; copies: 2 + 2
binding result (mouse FcγRIIb): binds
binding result (mouse FcγRIII): binds
binding result (mouse FcγRI): no binding

B8: Fv4-IgG1-F20 (antibody)
heavy: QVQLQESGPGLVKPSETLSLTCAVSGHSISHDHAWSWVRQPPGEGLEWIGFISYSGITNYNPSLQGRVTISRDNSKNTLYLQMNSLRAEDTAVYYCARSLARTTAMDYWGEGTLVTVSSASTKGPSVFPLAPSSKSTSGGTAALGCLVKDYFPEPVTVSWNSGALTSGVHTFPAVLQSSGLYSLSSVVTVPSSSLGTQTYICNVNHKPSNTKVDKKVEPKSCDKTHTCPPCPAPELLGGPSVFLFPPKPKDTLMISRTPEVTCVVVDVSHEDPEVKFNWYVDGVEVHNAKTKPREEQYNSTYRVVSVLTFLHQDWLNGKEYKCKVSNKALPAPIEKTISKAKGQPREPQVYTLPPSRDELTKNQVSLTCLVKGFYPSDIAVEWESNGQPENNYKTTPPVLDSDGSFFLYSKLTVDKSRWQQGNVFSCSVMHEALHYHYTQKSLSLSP
light: DIQMTQSPSSLSASVGDSVTITCQASTDISSHLNWYQQKPGKAPELLIYYGSHLLSGVPSRFSGSGSGTDFTFTISSLEAEDAATYYCGQGNRLPYTFGQGTKVEIERTVAAPSVFIFPPSDEQLKSGTASVVCLLNNFYPREAKVQWKVDNALQSGNSQESVTEQDSKDSTYSLSSTLTLSKADYEKHKVYACEVTHQGLSSPVTKSFNRGEC
notes: VH3-IgG1-F20 with VL3-CK; copies: 2 + 2
binding result (mouse FcγRIIb): binds
binding result (mouse FcγRIII): binds
binding result (mouse FcγRI): binds
